From US9096835B2, “DNA polymerase” (Medical Research Council, priority 2003, dated 2015)
“Also recorded” adds a separate entry of the source. One block for each molecule: values may come before it.

Key:
Type in all cases: biochemical
[1] = test system: primer-template duplex, correct or incorrect incoming dNTP; experiment: Steady-state single nucleotide incorporation kinetics, gel-based assay
Procedure: Kinetic parameters were determined using a gel-based assay essentially as described (16). Primers 15, 16, 17 (3′ base=G, C, A respectively) were ^32P-labeled and annealed to one of template strands 18, 19, 20 (template base=C, G, A respectively) or 21 (template base C different context). Duplex substrates were used at 50 nM final concentration in 1× Taq buffer with various concentrations of enzyme and dNTP. Reactions were carried out at 60° C. for times whereby <20% of primer-template was utilized at the highest concentration of dNTP.
Extension and incorporation kinetics of M1 and M4 for a selection of mismatches were measured using a gel-based steady-state kinetic assay (Goodman) (Tables 1 & 2). M1 and M4 respectively extend a C•C mispair 390 and 75-fold more efficiently than wtTaq. […] The gain in extension efficiency derives predominantly from increased relative Vmax values for the mutant polymerases, while Km for nucleotide substrates remains largely unchanged. For most DNA polymerases the relative efficiency of extending a given mispair (f0ext) is similar to the relative efficiency of forming it (finc) (Goodman 1993, Goodman 1990, Washington 2001). Indeed, M1 and M4 respectively incorporate dCTP opposite template base C 206- and 29-fold more efficiently than wtTaq (Table 2).

[2] = test system: template containing an abasic site; experiment: Translesion replication assay (primer extension), abasic site; conditions: gel-extension assay, 60° C.
Procedure: (§1) Template primers 22 (undamaged) or 23 (containing a synthetic abasic site) were synthesized by Lofstrand Laboratories (Gaithersburg, Md.). Template primer 24 (containing a single cis-syn thymine dimer), was synthesized as described (34). Primer 25 was ^32P-labeled and annealed to one of the three templates 22, 23, 24 (at a primer template ratio of molar 1:1.5) and extended in 40 mM Tris.HCl at pH 8.0, 5 mM MgCl2, 100 μM of each dNTP, 10 mM DTT, 250 μg/ml BSA, 2.5% glycerol, 10 nM primer-template DNA and 0.1 Unit of polymerase at 60° C. for various times.
(§2) Primer extension assays were essentially as described in (Ghadessy et al., 2004). Briefly, undamaged oligonucleotides and a 51mer containing a synthetic abasic site were synthesized by Lofstrand Laboratories (Gaithersburg, Md.) using standard techniques and were gel purified prior to use. A 20mer primer (LES—20 P) with the sequence 5′-[…]-3′ (SEQ ID NO: 99) was 5′-labeled with [^32P]ATP (5000 Ci/mmole; 1 Ci=37 GBq) (Pharmacia) using T4 polynucleotide kinase (Invitrogen, Carlsbad Calif.). Radiolabeled primer-template DNAs were prepared by annealing the 5′[^32P] labeled 20mer primer to one of the two following 51mer templates (at a primer template ratio of molar 1:1.5). 1) undamaged DNA (UNDT51T); 5′-AGCTACCATGCCTGCACGAATTCGGCATCCGTCGCGACCACGGTCGCAGCG-3′ (SEQ ID NO: 100); 2) an oligo (LABA51T) containing a synthetic abasic site (indicated as an X in bold font); 5′-AGCTACCATGCCTGCACGACA XCG GCATCCGTCGCGACCACGGTCGCAGCG-3′ (SEQ ID NO: 101). Standard replication reactions of 10 contained 40 mM Tris.HCl at pH 8.0, 5 mM MgCl2, 100 μM of each ultrapure dNTP (Amersham Pharmacia Biotech, NJ), 10 mM DTT, 250 μg/ml BSA, 2.5% glycerol, 10 nM 5′[32P] primer-template DNA and 0.1 Unit of polymerase. After incubation at 60° C. for various times reactions were terminated by the addition of 10 μl of 95% formamide/10 mM EDTA and the samples heated to 100° C. for 5 min. Reaction mixtures (5 μl) were subjected to 20% polyacrylamide/7 M Urea gel electrophoresis and replication products visualized by PhosphorImager analysis.

[3] = test system: template containing a cis-syn cyclobutane thymine-thymine dimer (CPD); experiment: Translesion replication assay (primer extension), CPD; conditions: gel-extension assay, 60° C.
Procedure: as §1, §2

[4] = test system: primers with an abasic site seven bases from their 3′ end; experiment: Abasic site bypass in PCR; conditions: 176 bp product, 20 cycles of PCR
Procedure: FIG. 10. A list of polymerases selected to extend four mismatches were assayed for their ability to extend abasic sites in PCR. Primers with an abasic site seven bases from their 3′ end were designed. Such primers will prevent exponential amplification of the target sequence, restricting it to […] amplification, unless the abasic site is bypassed. […] (A) Screen which identified clone A10. (B) A further 4 polymerases that display good abasic site bypass. Lane M: markers, Hae III digest of Φ X174.
A list of polymerases selected to extend four mismatches were assayed for their ability to extend abasic sites in PCR (FIG. 10).

Ratio of finc, finc (mutant polymerase)/finc (wtTaq) ([1]; base pair C: dCTP): 1
Ratio of finc, finc (mutant polymerase)/finc (wtTaq) ([1]; base pair G: dATP): 1
Ratio of finc, finc (mutant polymerase)/finc (wtTaq) ([1]; base pair G: dGTP): 1
Ratio of finc, finc (mutant polymerase)/finc (wtTaq) ([1]; base pair G: dTTP): 1
Molecule: wtTaq: Thermus aquaticus (Taq) wild type DNA polymerase [reference compound]
Km ([1]; base pair C: dCTP): 1330 µM
finc, f (incorrect dNTP)/f (correct dNTP) ([1]; base pair C: dCTP): 3.86 × 10^−8
Vmax ([1]; base pair C: dCTP (template base: incoming nucleotide)): 3.3 % Min^−1
Vmax ([1]; base pair C: dGTP (template base: incoming nucleotide), correct dNTP): 2356.02 % Min^−1
Km ([1]; base pair C: dGTP, correct dNTP): 0.0366 µM
Km ([1]; base pair G: dATP): 259 µM
finc, f (incorrect dNTP)/f (correct dNTP) ([1]; base pair G: dATP): 8.27 × 10^−5
Vmax ([1]; base pair G: dATP (template base: incoming nucleotide)): 1973.68 % Min^−1
Vmax ([1]; base pair G: dCTP (template base: incoming nucleotide), correct dNTP): 1477 % Min^−1
Km ([1]; base pair G: dCTP, correct dNTP): 0.016 µM
Km ([1]; base pair G: dGTP): 365 µM
finc, f (incorrect dNTP)/f (correct dNTP) ([1]; base pair G: dGTP): 1.7 × 10^−6
Vmax ([1]; base pair G: dGTP (template base: incoming nucleotide)): 57.47 % Min^−1
Km ([1]; base pair G: dTTP): 1.64 µM
finc, f (incorrect dNTP)/f (correct dNTP) ([1]; base pair G: dTTP): 1.65 × 10^−4
Vmax ([1]; base pair G: dTTP (template base: incoming nucleotide)): 25.08 % Min^−1
abasic site bypass in primer extension [2]: further extension is largely abolished; also recorded: further extension was negligible
CPD bypass in primer extension [3]: only able to insert a base opposite the 3′T of the dimer after prolonged reaction conditions

B1: 3A10: third round clone, abasic site bypass; SEQ ID NO: 86 (protein)
chain: MAMLPLFEPKGRVLLVDGHHLAYRTFFALKGLTTSRGEPVQVVYGFAKSLLKALKEDGYKAVFVVFDAKAPSFRHKAYEAYRAGRAPTPQDFPRQLALIKELVDLLGFTRLEVPGYEADDVLATLAKKAEKEGYEVRILTADRGLYQLVSDRVAVLHPEGHLITPEWLWEKYGLRPEQWVDFRALVGDPSDNLPGVKGIGEKTALKLLKEWGSLENLLKNLDRVKPENVREKIKAHLEDLRLSLELSRVRTDLPLEVDLAQGREPDREGLRAFLERLEFGSLLHEFGLLESPKALEEAPWPPPEGAFVGFVLSRKEPMWADLLALAAARGGRVHQAPEPYKALRDLKEARGLLAKDLSVLALREGLGLPPGDDPMLLAYLLDPSNTTPEGVARRYGGEWTEEAGERAALSERLFANLWGRLEGEERLLWLYREVERPLSAVLAHMETTGVRLDVAYLRALSLEVAEEIARLEAEVFRLAGRPFNLNSRDQLERVLFDELGLPAIGKTEKTGKRSTSAAVLEALREAHPIVEKILQYRELTKLKSTYIDPLPDLIHPRTGRLHTRFNQTATATGRLSSSDPNLQNIPVRTPLGQRIRRAFIAEEGWLLVVLDYSQMELRVLAHLSGDENLIRVFQEGKDIHTQTASWMFGVPPEAVDPLMRRAAKTVNFGVLYGMSAHRLSQELSIPYEEAVAFIERYFQSFPKVRAWIEKTLEEGRRRGYVETLFGRRRYVPDLNARMKSVRGAAERMAFNMPVQGTAADLMKLAMVKLFPRLREMGARMLLQVHDELLLEAPQARAEEVAALAKEAMEKAYPLAVPLEVEVGIGEDWLSAKE
modifications: Mutant Taq polymerase
amplification product in PCR with abasic site primers [4]: produced an amplification product
abasic site bypass in primer extension ([2]; listed as A10): clearly better at both abasic site and CPD extension and bypass than both wild type and M1; also recorded: clearly display better abasic site bypass than either wtTaq or M1
CPD bypass in primer extension ([3]; listed as A10): clearly better at both abasic site and CPD extension and bypass than both wild type and M1; also recorded: superior elongation and bypass when compared to wild type

B2: 3D1: third round clone, four mismatch extension; SEQ ID NO: 98 (protein)
chain: MAMLPLFEPKGRVLLVDGHHLAYRTFFALKGPTTSRGEPVQVVYGFAKSLLKALKEDGYKAVFVVFDAKAPSFRHKAYEAYRAGRAPTPEDFPRQLALIKELVDLLGFTRLEVPGYEADDVLATLAKKAEKEGYEVRILTADRGLYQLVSDRVAVLHPEGHLITPEWLWEKYGLRPEQWVDFRALVGDPSDNLPGVKGIGEKTALKLLKEWGSLENLLKNLDRVKPENVREKIKAHLEDLRLSLELSRVRTDLPLEVDLAQRREPDREGLRAFLERLEFGSLFHEFGLLESPKALEEAPWPPPEGAFVGFVLSRKEPMWADLLALAAARGGRVHRAPEPYKALRDLKEARGLLAKDLSVLALREGLGLPPGDDPMLLAYLLDPSNTTPEGVARRYGGEWTEEAGERAALSERLFANLWGRLEGEERLLWLYREVERPLSAVLAHMEATGVRLDVAYLRALSLEVAEEIARLEAEVFRLAGHPFNLNSRDQLEMVLFDELRLPALGKTQKTGKRSTSAAVLEALREAHPIVEKILQYRELTKLKSTYIDPLSDLIHPRTGRLHTRFNQTATATGRLSSSDPNLQNIPVRTPLGQRIRRAFIAEEGWLLVVLDYSQIELRVLAHLSGDENLIRVFQEGRDIHTETASWMFGVPREAVDPLMRRAAKTINFGVLYGMSAHRLSQELAIPYEEAQAFIERYFQSFPKVRAWIEKTLEEGRRRGYVETLFGRRRYVPDLEARVKSVREAAERMAFNMPVQGTAADLMKLAMVKLFPRLGETGARMLLQVHDELVLEAPKERAEAVARLAKEAMEGVYPLAVPLEVEVGIGEDWLSAKG
modifications: Mutant Taq polymerase
amplification product in PCR with abasic site primers [4]: produced an amplification product
abasic site bypass in primer extension [2]: clearly display better abasic site bypass than either wtTaq or M1
